Data taken from PMC11316256.

Experiments:
[1] = target: CD177 (allele 263K431G) on 293 cells (human) (UniProt Q8N6Q3)
[2] = target: CD177 (allele 263K431R) on 293 cells (human) (UniProt Q8N6Q3)
[3] = target: CD177 (allele 263K431G) on 293 cells (human) (UniProt Q8N6Q3); experiment: bead-rosette formation; hIgG coupled to M-450 Epoxy Dynabeads, mixed with 293 cells at 3.5 beads per cell; beads on cells with two or more beads counted from one hundred random cells

Chain of CD177 (allele 263K431G) on 293 cells (human) (Q8N6Q3 22-408): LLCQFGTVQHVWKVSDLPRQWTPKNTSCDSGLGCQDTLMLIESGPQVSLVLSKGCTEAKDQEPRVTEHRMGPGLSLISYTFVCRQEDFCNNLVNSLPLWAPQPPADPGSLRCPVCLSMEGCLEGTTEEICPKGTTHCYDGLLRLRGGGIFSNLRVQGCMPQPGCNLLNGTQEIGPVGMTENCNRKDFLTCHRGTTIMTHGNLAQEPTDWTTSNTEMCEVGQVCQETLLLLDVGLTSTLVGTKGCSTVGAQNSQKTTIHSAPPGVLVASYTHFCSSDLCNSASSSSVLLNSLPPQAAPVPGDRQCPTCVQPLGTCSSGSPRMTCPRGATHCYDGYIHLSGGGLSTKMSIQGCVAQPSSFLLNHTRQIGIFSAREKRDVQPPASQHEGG
Chain of CD177 (allele 263K431R) on 293 cells (human) (Q8N6Q3 22-408): as above

ADCC (% specific release) of NK-92 cells expressing the CD177-263K431G allele against SKOV-3 cells with trastuzumab 5 μg/ml, E:T 20:1 [1]	ADCC (% specific release) of NK-92 cells expressing the CD177-263K431R allele against SKOV-3 cells with trastuzumab 5 μg/ml, E:T 20:1; failed to mediate ADCC [2]	bound beads per 100 cells (beads per 100 cells) [3]	Substance
8.93%	0.11%		Trastuzumab/Herceptin (antibody)
		123	Human serum IgG (hIgG) (antibody)
